# Measurements published in article PMC2844784 (Cell host & microbe, 2010).
# T1: recombinant Set7/9-KMT7 (UniProt Q8WTS6 1-366)
# T1 sequence (looked up): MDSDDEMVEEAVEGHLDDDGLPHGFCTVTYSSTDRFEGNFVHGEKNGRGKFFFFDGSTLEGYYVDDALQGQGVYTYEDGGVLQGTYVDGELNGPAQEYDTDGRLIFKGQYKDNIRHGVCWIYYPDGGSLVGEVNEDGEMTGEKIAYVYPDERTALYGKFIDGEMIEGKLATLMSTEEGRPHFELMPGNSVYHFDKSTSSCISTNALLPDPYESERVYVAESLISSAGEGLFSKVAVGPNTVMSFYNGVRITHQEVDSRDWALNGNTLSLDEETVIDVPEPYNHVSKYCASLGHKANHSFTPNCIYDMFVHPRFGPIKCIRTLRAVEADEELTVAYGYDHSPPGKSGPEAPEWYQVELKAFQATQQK
# B1: full-length synthetic Tat protein (aa 1-72) (natural protein)
# chain: MEPVDPRLEPWKHPGSQPKTACTNCYCKKCCFHCQVCFITKALGISYGRKKRRQRRRAHQNSQTHQASLSKQ
# Target: T1, recombinant Set7/9-KMT7
# Assay: in vitro binding reaction
binder,measurement,value
B1,binding result,binds
